Measured values: PMC4477937, “Alpha-2-Macroglobulin Is Acutely Sensitive to Freezing and Lyophilization: Implications for Structural and Functional Studies” (PLoS ONE, 2015)

Assays:
[1] = target: the molecule itself; experiment: native gel or EMSA; native PAGE, NuPAGE 3–8% Tris-acetate, Tris-glycine running buffer, stained with InstantBlue; purified α2M after storage (4°C for months, -20°C, rapid freezing, lyophilization)
Creatine phosphokinase = Creatine phosphokinase (UniProt P00563 1-381); experiment: cell-based or functional assay
Creatine phosphokinase, sequence (P00563 whole entry): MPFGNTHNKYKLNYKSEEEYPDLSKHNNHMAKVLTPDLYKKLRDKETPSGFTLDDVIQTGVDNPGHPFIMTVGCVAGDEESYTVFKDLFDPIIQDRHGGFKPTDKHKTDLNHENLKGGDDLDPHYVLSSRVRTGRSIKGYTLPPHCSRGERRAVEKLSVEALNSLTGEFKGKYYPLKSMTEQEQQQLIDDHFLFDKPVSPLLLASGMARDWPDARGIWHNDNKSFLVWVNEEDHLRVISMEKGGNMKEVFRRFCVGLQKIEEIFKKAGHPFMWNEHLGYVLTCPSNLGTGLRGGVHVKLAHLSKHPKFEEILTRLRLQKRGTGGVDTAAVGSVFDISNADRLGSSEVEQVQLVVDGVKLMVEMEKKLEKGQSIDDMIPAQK

decrease in turbidity (absorbance at 595 nm) of CPK (5 μM) at 43°C over 8 hrs with α2M at a molar ratio of α2M-to-CPK of 1:15; α2M rapidly frozen in liquid nitrogen and stored at -20°C for 1 month (Creatine phosphokinase): ~50%
B1: Alpha-2-macroglobulin (natural protein, human, UniProt P01023 24-1474, looked up)
chain: SVSGKPQYMVLVPSLLHTETTEKGCVLLSYLNETVTVSASLESVRGNRSLFTDLEAENDVLHCVAFAVPKSSSNEEVMFLTVQVKGPTQEFKKRTTVMVKNEDSLVFVQTDKSIYKPGQTVKFRVVSMDENFHPLNELIPLVYIQDPKGNRIAQWQSFQLEGGLKQFSFPLSSEPFQGSYKVVVQKKSGGRTEHPFTVEEFVLPKFEVQVTVPKIITILEEEMNVSVCGLYTYGKPVPGHVTVSICRKYSDASDCHGEDSQAFCEKFSGQLNSHGCFYQQVKTKVFQLKRKEYEMKLHTEAQIQEEGTVVELTGRQSSEITRTITKLSFVKVDSHFRQGIPFFGQVRLVDGKGVPIPNKVIFIRGNEANYYSNATTDEHGLVQFSINTTNVMGTSLTVRVNYKDRSPCYGYQWVSEEHEEAHHTAYLVFSPSKSFVHLEPMSHELPCGHTQTVQAHYILNGGTLLGLKKLSFYYLIMAKGGIVRTGTHGLLVKQEDMKGHFSISIPVKSDIAPVARLLIYAVLPTGDVIGDSAKYDVENCLANKVDLSFSPSQSLPASHAHLRVTAAPQSVCALRAVDQSVLLMKPDAELSASSVYNLLPEKDLTGFPGPLNDQDNEDCINRHNVYINGITYTPVSSTNEKDMYSFLEDMGLKAFTNSKIRKPKMCPQLQQYEMHGPEGLRVGFYESDVMGRGHARLVHVEEPHTETVRKYFPETWIWDLVVVNSAGVAEVGVTVPDTITEWKAGAFCLSEDAGLGISSTASLRAFQPFFVELTMPYSVIRGEAFTLKATVLNYLPKCIRVSVQLEASPAFLAVPVEKEQAPHCICANGRQTVSWAVTPKSLGNVNFTVSAEALESQELCGTEVPSVPEHGRKDTVIKPLLVEPEGLEKETTFNSLLCPSGGEVSEELSLKLPPNVVEESARASVSVLGDILGSAMQNTQNLLQMPYGCGEQNMVLFAPNIYVLDYLNETQQLTPEIKSKAIGYLNTGYQRQLNYKHYDGSYSTFGERYGRNQGNTWLTAFVLKTFAQARAYIFIDEAHITQALIWLSQRQKDNGCFRSSGSLLNNAIKGGVEDEVTLSAYITIALLEIPLTVTHPVVRNALFCLESAWKTAQEGDHGSHVYTKALLAYAFALAGNQDKRKEVLKSLNEEAVKKDNSVHWERPQKPKAPVGHFYEPQAPSAEVEMTSYVLLAYLTAQPAPTSEDLTSATNIVKWITKQQNAQGGFSSTQDTVVALHALSKYGAATFTRTGKAAQVTIQSSGTFSSKFQVDNNNRLLLQQVSLPELPGEYSMKVTGEGCVYLQTSLKYNILPEKEEFPFALGVQTLPQTCDEPKAHTSFQISLSVSYTGSRSASNMAIVDVKMVSGFIPLKPTVKMLERSNHVSRTEVSSNHVLIYLDKVSNQTLSLFFTVLQDVPVRDLKPAIVKVYDYYETDEFAIAEYNAPCSKDLGNA
notes: alpha-2-macroglobulin, human, from blood plasma; 720 kDa homotetramer of four 180 kDa subunits, paired by disulfide bonds into dimers; Storage changes the conformation (native, transformed, dimers, higher molecular weight species); also called α2M; native α2M; source: purified from human blood plasma (Zn-charged HiTrap chelating column, Sephacryl S-300 gel filtration)
binding result [1]: binds
